Test results as given in PMC6205950, “4-Chlorophenol Oxidation Depends on the Activation of an AraC-Type Transcriptional Regulator, CphR, in Rhodococcus sp. Strain YH-5B” (Frontiers in Microbiology, 2018).

Columns and labels:
Experiment in all cases: purified protein
[1] = test system: O=[N+]([O-])c1cccc(O)c1; conditions: 200 μM NADH, 25 μM FAD, 50 mM phosphate pH 7.5
[2] = test system: Oc1ccc(Cl)cc1; conditions: 200 μM NADH, 25 μM FAD, 50 mM phosphate pH 7.5, text prints 8.7 ± 1.1
[3] = test system: Oc1ccccc1; conditions: 200 μM NADH, 25 μM FAD, 50 mM phosphate pH 7.5

two-component 4-CP monooxygenase (H6-CphA1 and H6-CphA2) (Rhodococcus sp. (in: high G+C Gram-positive bacteria))
Km [1]: 63.2 ± 7.7 µM
Km [2]: 8.7 ± 1.2 µM
kcat [2]: 0.62 ± 0.04 min⁻¹
Km [3]: 9.6 ± 0.9 µM
